Columns and labels:
[1] = target: HLA-A*02:03; assay: IEDB peptide-MHC binding, purified MHC/competitive/radioactivity; ≥ and ≤ were set here for values at or beyond the usual limits of such assays
[2] = target: HLA-A*02:02; assay: as above
[3] = target: HLA-A*68:02; assay: IEDB peptide-MHC binding, cellular MHC/competitive/fluorescence; ≥ and ≤ were set here for values at or beyond the usual limits of such assays
[4] = target: HLA-A*02:06; assay: as above
[5] = target: HLA-A*02:01; assay: IEDB peptide-MHC binding, purified MHC/competitive/radioactivity; ≥ and ≤ were set here for values at or beyond the usual limits of such assays; conditions: source organism: Vaccinia virus WR
[6] = target: HLA-A*68:02; assay: as above
[7] = target: HLA-A*02:01; assay: IEDB peptide-MHC binding, cellular MHC/competitive/fluorescence; ≥ and ≤ were set here for values at or beyond the usual limits of such assays
[8] = source organism: Influenza A virus
[9] = source organism: Vaccinia virus WR
[10] = source organism: Mammarenavirus brazilense
[11] = source organism: Mammarenavirus whitewaterense
[12] = source organism: Mammarenavirus lassaense

Work on RLNKRSYLI yielded an IC50 [1, 8] of 146 nM, an IC50 [2, 8] of 23 nM and an IC50 [3, 8] of 42600 nM. The IC50 [4, 8] was 18500 nM.

SMKGENVFI gave an IC50 [1, 9] of 19 nM, an IC50 [5] of 611 nM and an IC50 [2, 9] of 5.5 nM. The IC50 [3, 9] was 9340 nM and the IC50 [4, 9] was 13700 nM.

With LMELPVKTDI the IC50 [1, 9] was 986 nM, the IC50 [5] was 1330 nM and the IC50 [2, 9] was 1510 nM. For the same sequence, the IC50 [3, 9] was no less than 70000 nM and the IC50 [4, 9] was 12900 nM.

In the case of KLFKRERDA, the IC50 [1, 9] is reported as 985 nM, the IC50 [5] is reported as 859 nM and the IC50 [2, 9] is reported as 2390 nM. It also gave an IC50 [3, 9] of 35800 nM and an IC50 [4, 9] of 14900 nM.

MTSTRTIIL was tested, and the IC50 [1, 9] was 840 nM, the IC50 [6, 9] was 507 nM and the IC50 [2, 9] was 1340 nM. It also gave an IC50 [7, 9] of 6470 nM and an IC50 [4, 9] of 6790 nM.

DLNRMPTDML showed an IC50 [1, 9] of 2190 nM, an IC50 [6, 9] of 3940 nM and an IC50 [2, 9] of 1250 nM. For the same sequence, the IC50 [7, 9] was 17300 nM and the IC50 [4, 9] was 47400 nM.

Sequence ALKNSQAEL has an IC50 [1, 9] of 17 nM, an IC50 [5] of 1740 nM and an IC50 [2, 9] of 71 nM. The IC50 [3, 9] was no less than 70000 nM and the IC50 [4, 9] was 33000 nM.

Work on ETLFGSYIT yielded an IC50 [1, 9] of 2440 nM, an IC50 [6, 9] of 465 nM and an IC50 [2, 9] of 2490 nM. For the same sequence, the IC50 [7, 9] was 15600 nM and the IC50 [4, 9] was 15400 nM.

VLQQNNSFI gave an IC50 [1, 9] of 249 nM, an IC50 [5] of 234 nM and an IC50 [2, 9] of 100 nM. The IC50 [3, 9] was 16300 nM and the IC50 [4, 9] was 8680 nM.

Sequence LRYFIMAYV has an IC50 [1, 10] of 396 nM, an IC50 [6, 10] of 18 nM and an IC50 [2, 10] of 213 nM. The IC50 [7, 10] was 12700 nM and the IC50 [4, 10] was 20100 nM.

For KLFKRERDAI, the IC50 [1, 9] was 120 nM, the IC50 [5] was 1480 nM and the IC50 [2, 9] was 92 nM. The IC50 [3, 9] was no less than 70000 nM and the IC50 [4, 9] was 14200 nM.

For QILDNAAKYV, the IC50 [1, 9] was 3870 nM, the IC50 [5] was 3480 nM and the IC50 [2, 9] was 3930 nM. It also gave an IC50 [3, 9] of 35800 nM and an IC50 [4, 9] of 11400 nM.

AVATTHSWI showed an IC50 [1, 8] of 753 nM, an IC50 [6, 8] of 876 nM and an IC50 [2, 8] of 440 nM. For the same sequence, the IC50 [7, 8] was 32900 nM and the IC50 [4, 8] was 28000 nM.

Work on LAEHISDSI yielded an IC50 [1, 9] of 731 nM, an IC50 [6, 9] of 428 nM and an IC50 [2, 9] of 45 nM. For the same sequence, the IC50 [7, 9] was 6050 nM and the IC50 [4, 9] was 19300 nM.

KTVAGSFAS was tested, and the IC50 [1, 11] was 3820 nM, the IC50 [6, 11] was 2990 nM and the IC50 [2, 11] was 1600 nM. For the same sequence, the IC50 [7, 11] was 5560 nM and the IC50 [4, 11] was 9140 nM.

NASKTINAL gave an IC50 [1, 9] of 708 nM, an IC50 [6, 9] of 52 nM and an IC50 [2, 9] of 117 nM. The IC50 [7, 9] was 26800 nM and the IC50 [4, 9] was 6110 nM.

For VTSPLTGNNT, the IC50 [1, 9] was 2500 nM, the IC50 [6, 9] was 510 nM and the IC50 [2, 9] was 1450 nM. It also gave an IC50 [7, 9] of 39500 nM and an IC50 [4, 9] of 5130 nM.

DLFMSHVKSV gave an IC50 [1, 9] of 42 nM, an IC50 [5] of 2490 nM and an IC50 [6, 9] of 1940 nM. The IC50 [2, 9] was 3380 nM and the IC50 [4, 9] was 19800 nM.

Work on IVNNFITKEI yielded an IC50 [1, 9] of 192 nM, an IC50 [6, 9] of 1320 nM and an IC50 [2, 9] of 1470 nM. It also gave an IC50 [7, 9] of 13700 nM and an IC50 [4, 9] of 14200 nM.

In the case of GLILFVLAL, the IC50 [1, 9] is reported as 452 nM, the IC50 [5] is reported as 175 nM and the IC50 [6, 9] is reported as 4340 nM. The IC50 [2, 9] was 129 nM and the IC50 [4, 9] was 7810 nM.

DTLVKSGLT showed an IC50 [1, 9] of 2880 nM, an IC50 [6, 9] of 1950 nM and an IC50 [2, 9] of 1950 nM. It also gave an IC50 [7, 9] of no less than 70000 nM and an IC50 [4, 9] of 52900 nM.

In the case of RVKQWVMDTL, the IC50 [1, 9] is reported as 689 nM, the IC50 [6, 9] is reported as 155 nM and the IC50 [2, 9] is reported as 3480 nM. The IC50 [7, 9] was 21400 nM and the IC50 [4, 9] was 27800 nM.

FLRPVLKAM gave an IC50 [1, 9] of 9.8 nM, an IC50 [6, 9] of 2470 nM and an IC50 [2, 9] of 1380 nM. The IC50 [7, 9] was 11900 nM and the IC50 [4, 9] was 5480 nM.

With DLNAVTTNNL the IC50 [1, 9] was 1630 nM, the IC50 [5] was 1610 nM and the IC50 [6, 9] was 3370 nM. It also gave an IC50 [2, 9] of 1830 nM and an IC50 [4, 9] of 7520 nM.

LNQAVNNLV showed an IC50 [1, 12] of 3350 nM, an IC50 [6, 12] of 4880 nM and an IC50 [2, 12] of 511 nM. For the same sequence, the IC50 [7, 12] was 7960 nM and the IC50 [4, 12] was 13600 nM.

Work on RVKQWVMDT yielded an IC50 [1, 9] of 3.6 nM, an IC50 [6, 9] of 603 nM and an IC50 [2, 9] of 3630 nM. The IC50 [7, 9] was 20300 nM and the IC50 [4, 9] was 13500 nM.

For AAKTPVIVV, the IC50 [1, 9] was 1630 nM, the IC50 [6, 9] was 4280 nM and the IC50 [2, 9] was 1360 nM. For the same sequence, the IC50 [7, 9] was 9430 nM and the IC50 [4, 9] was 25300 nM.

With DTIAHINTL the IC50 [1, 9] was 233 nM, the IC50 [6, 9] was 1240 nM and the IC50 [2, 9] was 747 nM. For the same sequence, the IC50 [7, 9] was 10100 nM and the IC50 [4, 9] was 11100 nM.

Work on TMKAIEKDRL yielded an IC50 [1, 9] of 1060 nM, an IC50 [6, 9] of 1570 nM and an IC50 [2, 9] of 171 nM. For the same sequence, the IC50 [7, 9] was 17500 nM and the IC50 [4, 9] was no less than 70000 nM.

In the case of SLCPTKKLV, the IC50 [1, 9] is reported as 2660 nM, the IC50 [5] is reported as 2660 nM and the IC50 [6, 9] is reported as 1040 nM. For the same sequence, the IC50 [2, 9] was 3160 nM and the IC50 [4, 9] was 11900 nM.

IAVANCVRNL gave an IC50 [1, 9] of 467 nM, an IC50 [6, 9] of 465 nM and an IC50 [2, 9] of 57 nM. It also gave an IC50 [7, 9] of 13600 nM and an IC50 [4, 9] of 9110 nM.

For DVDIPTFNSL, the IC50 [1, 9] was 1030 nM, the IC50 [6, 9] was 3050 nM and the IC50 [2, 9] was 1810 nM. For the same sequence, the IC50 [7, 9] was 18200 nM and the IC50 [4, 9] was 9710 nM.

RVNDLNRMPT showed an IC50 [1, 9] of 1440 nM, an IC50 [6, 9] of 631 nM and an IC50 [2, 9] of 1360 nM. For the same sequence, the IC50 [7, 9] was 7200 nM and the IC50 [4, 9] was 7720 nM.

Work on DIMTSTRTI yielded an IC50 [1, 9] of 79 nM, an IC50 [5] of 3460 nM and an IC50 [6, 9] of 78 nM. It also gave an IC50 [2, 9] of 3450 nM and an IC50 [4, 9] of 21800 nM.

Source: the Immune Epitope Database (IEDB)
